In the test the target is α-synuclein (AS) expressed in non-mitotic SH-SY5Y cells, P37840. Briefly: proximity ligation. The following applies: remark: other sources report otherwise.

B1: SERCA2 in SH-SY5Y cells, P16615 1-1042 (enzyme)
chain: MENAHTKTVEEVLGHFGVNESTGLSLEQVKKLKERWGSNELPAEEGKTLLELVIEQFEDLLVRILLLAACISFVLAWFEEGEETITAFVEPFVILLILVANAIVGVWQERNAENAIEALKEYEPEMGKVYRQDRKSVQRIKAKDIVPGDIVEIAVGDKVPADIRLTSIKSTTLRVDQSILTGESVSVIKHTDPVPDPRAVNQDKKNMLFSGTNIAAGKAMGVVVATGVNTEIGKIRDEMVATEQERTPLQQKLDEFGEQLSKVISLICIAVWIINIGHFNDPVHGGSWIRGAIYYFKIAVALAVAAIPEGLPAVITTCLALGTRRMAKKNAIVRSLPSVETLGCTSVICSDKTGTLTTNQMSVCRMFILDRVEGDTCSLNEFTITGSTYAPIGEVHKDDKPVNCHQYDGLVELATICALCNDSALDYNEAKGVYEKVGEATETALTCLVEKMNVFDTELKGLSKIERANACNSVIKQLMKKEFTLEFSRDRKSMSVYCTPNKPSRTSMSKMFVKGAPEGVIDRCTHIRVGSTKVPMTSGVKQKIMSVIREWGSGSDTLRCLALATHDNPLRREEMHLEDSANFIKYETNLTFVGCVGMLDPPRIEVASSVKLCRQAGIRVIMITGDNKGTAVAICRRIGIFGQDEDVTSKAFTGREFDELNPSAQRDACLNARCFARVEPSHKSKIVEFLQSFDEITAMTGDGVNDAPALKKAEIGIAMGSGTAVAKTASEMVLADDNFSTIVAAVEEGRAIYNNMKQFIRYLISSNVGEVVCIFLTAALGFPEALIPVQLLWVNLVTDGLPATALGFNPPDLDIMNKPPRNPKEPLISGWLFFRYLAIGCYVGAATVGAAAWWFIAADGGPRVSFYQLSHFLQCKEDNPDFEGVDCAIFESPYPMTMALSVLVTIEMCNALNSLSENQSLLRMPPWENIWLVGSICLSMSLHFLILYVEPLPLIFQITPLNVTQWLMVLKISLPVILMDETLKFVARNYLEPGKECVQPATKSCSFSACTDGISWPFVLLIMPLVIWVYSTDTNFSDMFWS
For the molecule B1, the reduction of the PLA signal by 0.5 μM CPA turned out to be 50%.

These data come from PMC5934765.
